# B1: minF1; a variant is named by its letters at N, in order (parent)
# chain: GAGACCGCAACTGAAAAGTTGTTNNNNAANNNNGGNTNNATTTCTGCACGTAGAAGCAAAAGGC
# Variants of: B1
# Experiment: fraction ligated after 30 min (ligated reads / total reads); higher = more ligase activity
# Conditions: with F1*subA RNA substrate (template-directed ligation), 42 °C
# Procedure: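 Chip-synthesised pool of minF1 ligase ribozyme variants (single and double substitutions, single to quadruple deletions, bulge and P2 designed variants) was transcribed with T7 and reacted as a pool with excess substrate F1*subA for 30 min at 42 C in 50 mM EPPS pH 8.5, 25 mM MgCl2. Ligated and unligated RNAs were separated by PAGE, barcoded by RT and deep sequenced; fraction ligated = ligated reads / total reads, relative activity = FL / FL of wild-type minF1 (0.76); sequencing FL correlated with PAGE (R2 = 0.98). Sequences are the DNA template of the ribozyme.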
row,Variant,fraction ligated
1,TAGATGTGTGA T23A,0.00136
2,TAGAGGTGTGA,0.00375
3,TAGATGGAGTA G34T,0.00584
4,AAGATGGTTGA,0.00185
5,TAGAGGAGTGA T23A A29T,0.00307
6,GAAAGATGTGA T23C A28T A29G,0.00212
7,CAGAGATGTGA T23A A28T A29G,0.00252
8,AAGATGAGTGA,0.00469
9,TAGATGATTGA T23A,0.00257
10,CAGAGATGTGA,0.00372
11,TCAAGATGTGA T23A,0.0017
12,TAAAGGATTGA A29T,0.00151
13,AAAAGATGTGA A28T A29G,0.00466
14,TAGAGGATGTA T23A A29T,0.00136
15,TAGATGGAGTG G34T,0.0121
16,AAGATGGAGTT G34T T37G,0.00134
17,TCAAGGAGTGA T23A,0.00195
18,CAGAGGATTGA A29T,0.0052
19,CAGAGGTGTGA T23A A29T,0.00102
20,TAAAGGATGTA T23A A29T,0.000932
21,TAGATGGTTGA T23A,0.00325

row,Variant,fraction ligated
1,CAGATGGTTGA T23A,0.00385
2,TAGATGGAGTT G34T T37G A40G,0.00199
3,AAGAGGATGTA A29T,0.00173
4,TAAAGATGTGA T23A A28T A29G,0.00461
5,TAGATGATTGA,0.00145
6,CAGATGGGTGA,0.00455
7,AAAAGGATTGA A29T,0.00197
8,CAGAGGAGTGA,0.0058
9,AAGATGGAGTA,0.00181
10,AAGATGGAGTG,0.00495
11,TAGAGATGTGA T23A,0.00319
12,TAGAGGAGTGA T23A,0.0026
13,TAGAGGTGTGA T23A,0.00196
14,TAGATATGTGA T23A,0.00255
15,TAAAGGAGTGA A29T,0.00185
16,CAGATGTGTGA T23A,0.00226
17,CAGAGGATGTG T23A,0.00549
18,TCAAGATGTGA,0.00179
19,TAGATGGAGTA T23A G34T,0.0029
20,CAGAGGAGTGA T23A,0.00148
21,AAGATGGAGTA G34T,0.00267

row,Variant,fraction ligated
1,TAGATGGAGTT T23A G34T T37G A40G,0.00177
2,TAAAGATGTGA T23A A29G,0.00271
3,TAAAGATGTGA T23A A29T,0.00358
4,AAAAGGAGTGA A29T,0.00356
5,TAGAGATGTGA A29T,0.00374
6,TAGAGATGTGA A29G,0.00391
7,CAGATGGATGA,0.00376
8,GAAAGATGTGA A28T A29G,0.00247
9,CAAAGGATTGA T23A A29T,0.00487
10,AAGAGGAGTGA,0.00337
11,CAGATGGAGTT G34T T37G,0.0026
12,TAGATGGTTGA,0.00065
13,AAGAGGATTGA,0.00146
14,TAGAGGATGTA T23A,0.00339
15,AAGATGGTGTG,0.00357
16,AAGATGGTGTA,0.00401
17,CAGAGGATGTA T23A,0.00339
18,CAGAGGATTGA T23A A29T,0.00274
19,CAGAGGATGTG T23A A29T,0.0132
20,TAAAGATGTGA A28T A29G,0.00323
21,CAGATGGAGTT T23A G34T T37G,0.00071

row,Variant,fraction ligated
1,TAGATGGAGTA T23A,0.000612
2,CAGAGGTGTGA T23A,0.00265
3,CAAAGGATGTA A29T,0.00185
4,TAGAGGATGTG A29T,0.0045
5,CAAAGGATGTG A29T,0.0079
6,CAGATGATGTG,0.00641
7,CAGATGATGTA,0.00303
8,TAGAGGAGTGA A29T,0.00156
9,AAGAGATGTGA,0.00157
10,TAGAGGTGTGA T23A A29T,0.00331
11,TAGATGGGTGA T23A,0.000824
12,CAGATGGAGTT T23A G34T T37G A40G,0.00303
13,CAGATGGTGTG T23A,0.00474
14,TAGATGGAGTG T23A G34T,0.00936
15,CAGAGGTGTGA,0.00486
16,CAAAGGATGTG T23A A29T,0.00761
17,TAGATGGTGTA T23A,0.00161
18,CAGATGGAGTT G34T T37G A40G,0.000312
19,ACAAGGAGTGA A29T,0.00407
20,TAGATGGAGTT T23A G34T T37G,0.000868

# — the supplement of paper PMC6755084
